One assay has as its system DNase I. The experiment in a line: Fluorophore-quencher dsDNA nuclease protection fluorescence assay. Type of assay: biochemical. An excerpt:
FIGS. 8A-8B present the protection of dsDNA from nuclease digestion by various dsDNA binders. FIG. 8A presents a fluorescence assay measuring nuclease activity in digestion of dsDNA, which is diminished in presence of dsDNA binders.
FIGS. 28A-28E: FIG. 28A presents an experimental workflow for testing the effect of a DNA binding agent on clearance and degradation of cfDNA. A DNA-binding monoclonal antibody (mAb) is combined with recombinant nucleosome core particles (NCPs) consisting of a human histone octamer complexed with 20 ng of the Widom601 double-stranded DNA (dsDNA) oligonucleotide. […] Levels of Widom601 were quantified via Taqman qPCR. […]
The ability of DBP's—both known proteins and novel ones generated above—to protect dsDNA from nuclease digestion using a previously-established plate-based fluorescence assay was evaluated Known DBP's that can be tested included anti-dsDNA antibodies (some commercially available, e.g. Abcam ab27156),^20,21 members of the protamine family of DBP's, 22 and a family of small DNA-binding archaeal proteins including Sso7d.^23-25 A commercially available dsDNA probe conjugated to a HEX fluorophore and a quencher was incubated with recombinant DNase 1 and DNase 1L3 (the predominant nucleases in circulation). […]

A further assay deals with DNase. The assay can be described thus: Nuclease digestion time-series / electropherogram of dsDNA. The class given is biochemical. The settings on record: dsDNA oligonucleotide.

The source of these data is patent publication US20240084286A1, “METHODS AND COMPOSITIONS FOR INCREASING THE CONCENTRATION OF CELL FREE DNA” (The Broad Institute, Inc., priority 2021, published 2024).

Entries after “also recorded” stand apart in the source; their conditions may differ.

Consider protamine sulfate [reference compound], for which the “protection of dsDNA from nuclease digestion” value in the assay on DNase I was “protect it from digestion by nucleases”.

B1: Sso7d: Small archaeal histone-like DNA-binding protein from Sulfolobus solfataricus, SEQ ID NO: 3 (protein, listed as Saccharolobus solfataricus)
chain: MATVKFKYKGEEKEVDISKIKKVWRVGKMISFTYDEGGGKTGRGAVSEKDAPKELLQMLEKQKK
Take B1: the “protection of dsDNA from nuclease digestion” value in the assay on DNase I is given as “protect it from digestion by nucleases; also recorded: protect dsDNA from DNase I digestion”. Besides, the “protection of dsDNA, digestion time-series” value with DNase is reported as “dsDNA protection”.
